Assay results published in publication PMC9482650, “Quantitative fragmentomics allow affinity mapping of interactomes” (Nature Communications, 2022).

T1: PDZRN3_1, Q9UPQ7
T1 sequence (Q9UPQ7 244-349, limits assumed, looked up): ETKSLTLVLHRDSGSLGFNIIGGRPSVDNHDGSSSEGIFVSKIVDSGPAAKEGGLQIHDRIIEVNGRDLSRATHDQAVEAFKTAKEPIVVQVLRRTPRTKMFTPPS

T2: HTRA3, P83110
T2 sequence (P83110 354-453, limits assumed, looked up): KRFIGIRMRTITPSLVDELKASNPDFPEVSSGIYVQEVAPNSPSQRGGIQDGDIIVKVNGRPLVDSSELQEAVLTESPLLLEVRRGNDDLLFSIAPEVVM

T3: MPDZ_10, O75970
T3 sequence (O75970 1624-1722, limits assumed, looked up): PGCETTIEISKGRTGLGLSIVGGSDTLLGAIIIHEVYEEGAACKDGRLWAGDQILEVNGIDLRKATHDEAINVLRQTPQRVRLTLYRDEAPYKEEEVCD

T4: FRMPD1, Q5SYB0
T4 sequence (Q5SYB0 52-145, limits assumed, looked up): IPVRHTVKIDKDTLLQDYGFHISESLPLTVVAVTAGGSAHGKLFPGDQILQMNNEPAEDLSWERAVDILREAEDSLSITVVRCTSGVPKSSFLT

T5: DFNB31_2, Q9P202
T5 sequence (Q9P202 274-371, limits assumed, looked up): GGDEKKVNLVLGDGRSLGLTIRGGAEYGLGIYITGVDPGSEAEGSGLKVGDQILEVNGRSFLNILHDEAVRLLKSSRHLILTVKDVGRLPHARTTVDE

T6: SNTB1, Q13884
T6 sequence (Q13884 107-205, limits assumed, looked up): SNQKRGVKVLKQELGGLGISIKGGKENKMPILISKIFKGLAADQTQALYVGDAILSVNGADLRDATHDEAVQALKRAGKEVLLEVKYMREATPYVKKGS

T7: LRRC7, Q96NW7
T7 sequence (Q96NW7 1440-1537, limits assumed, looked up): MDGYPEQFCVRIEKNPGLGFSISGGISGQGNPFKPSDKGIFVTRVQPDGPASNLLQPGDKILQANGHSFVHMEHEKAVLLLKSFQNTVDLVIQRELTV

T8: MPP7, Q5T2T1
T8 sequence (Q5T2T1 134-230, limits assumed, looked up): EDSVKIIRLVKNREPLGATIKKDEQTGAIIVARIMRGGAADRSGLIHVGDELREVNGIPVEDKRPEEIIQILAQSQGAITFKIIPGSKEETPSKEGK

T9: RHPN1, Q8TCX5
T9 sequence (Q8TCX5 508-602, limits assumed, looked up): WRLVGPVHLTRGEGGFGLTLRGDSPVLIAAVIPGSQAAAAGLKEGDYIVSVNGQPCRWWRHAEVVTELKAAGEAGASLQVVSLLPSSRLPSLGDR

T10: ARHGAP21, Q5T5U3
T10 sequence (Q5T5U3 45-169, limits assumed, looked up): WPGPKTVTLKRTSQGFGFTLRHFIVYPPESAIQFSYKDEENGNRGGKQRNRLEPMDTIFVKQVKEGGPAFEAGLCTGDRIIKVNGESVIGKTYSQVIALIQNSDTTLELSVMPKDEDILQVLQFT

T11: MPDZ_5, O75970
T11 sequence (O75970 695-796, limits assumed, looked up): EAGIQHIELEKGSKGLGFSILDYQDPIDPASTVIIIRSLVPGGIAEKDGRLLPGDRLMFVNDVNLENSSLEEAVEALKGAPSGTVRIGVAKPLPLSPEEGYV


Each binder was assayed against T1, PDZRN3_1, Q9UPQ7 (assay: holdup assay). Details: plain residues with an end cap or a label only (N-terminal biotin on a linker: ado-ado).
Set-up: key: below the threshold = too weak to quantify, mostly under pKd 3.1 to 4

Q: For LLQEEWETVM [PTH1R, Q03431], which pKd is on record?
A: The pKd was 3.83.

These binders were tested against DLG4_1, P78352 (assay: holdup assay). Details: plain residues with an end cap or a label only (N-terminal biotin on a linker: ado-ado).
Set-up: key: below the threshold = too weak to quantify, mostly under pKd 3.1 to 4

Chain of DLG4_1, P78352 (P78352 62-152): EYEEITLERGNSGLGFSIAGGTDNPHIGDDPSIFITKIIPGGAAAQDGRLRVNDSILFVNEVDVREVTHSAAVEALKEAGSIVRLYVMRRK

Q: How did the pKd turn out when LLQEEWETVM [PTH1R, Q03431] was run?
A: Its pKd is “below the threshold”.

The binders below were run against FRMPD2_2, Q68DX3 (assay: holdup assay). Details: plain residues with an end cap or a label only (N-terminal biotin on a linker: ado-ado).
Set-up: key: below the threshold = too weak to quantify, mostly under pKd 3.1 to 4

Chain of FRMPD2_2, Q68DX3 (Q68DX3 944-1038): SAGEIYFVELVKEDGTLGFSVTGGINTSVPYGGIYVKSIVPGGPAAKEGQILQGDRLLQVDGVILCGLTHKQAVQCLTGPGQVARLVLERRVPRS

Q: For LLQEEWETVM [PTH1R, Q03431], which pKd is on record?
A: The pKd was “below the threshold”.

These binders were tested against GORASP1, Q9BQQ3 (assay: holdup assay). Details: plain residues with an end cap or a label only (N-terminal biotin on a linker: ado-ado).
Set-up: key: below the threshold = too weak to quantify, mostly under pKd 3.1 to 4

Chain of GORASP1, Q9BQQ3 (Q9BQQ3 1-208): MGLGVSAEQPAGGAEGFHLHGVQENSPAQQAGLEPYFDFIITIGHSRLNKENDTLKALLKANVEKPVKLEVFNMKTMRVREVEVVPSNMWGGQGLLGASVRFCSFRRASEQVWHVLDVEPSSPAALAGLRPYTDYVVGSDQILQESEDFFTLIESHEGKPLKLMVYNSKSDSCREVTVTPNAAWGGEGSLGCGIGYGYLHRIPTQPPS

Q: With LLQEEWETVM [PTH1R, Q03431] as the binder, how does the pKd read?
A: Its pKd is 4.31.

These binders were tested against T2, HTRA3, P83110 (assay: holdup assay). Details: plain residues with an end cap or a label only (N-terminal biotin on a linker: ado-ado).
Set-up: key: below the threshold = too weak to quantify, mostly under pKd 3.1 to 4

Q: For LLQEEWETVM [PTH1R, Q03431], which pKd is on record?
A: The pKd was “below the threshold”.

Each binder was assayed against T3, MPDZ_10, O75970 (assay: holdup assay). Details: plain residues with an end cap or a label only (N-terminal biotin on a linker: ado-ado).
Set-up: key: below the threshold = too weak to quantify, mostly under pKd 3.1 to 4

Q: Which pKd does the source give for LLQEEWETVM [PTH1R, Q03431] here?
A: The pKd was “below the threshold”.

These binders were tested against SCRIB_1, Q14160 (assay: holdup assay). Details: plain residues with an end cap or a label only (N-terminal biotin on a linker: ado-ado).
Set-up: key: below the threshold = too weak to quantify, mostly under pKd 3.1 to 4

Chain of SCRIB_1, Q14160 (Q14160 718-814): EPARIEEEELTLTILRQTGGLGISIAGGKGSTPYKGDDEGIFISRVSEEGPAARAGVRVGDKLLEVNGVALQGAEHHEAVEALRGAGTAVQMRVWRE

Q: For LLQEEWETVM [PTH1R, Q03431], which pKd is on record?
A: Its pKd is 3.62.

What follows are binders tested against TJP1_2, Q07157 (assay: holdup assay). Details: plain residues with an end cap or a label only (N-terminal biotin on a linker: ado-ado).
Set-up: key: below the threshold = too weak to quantify, mostly under pKd 3.1 to 4

Chain of TJP1_2, Q07157 (Q07157 181-274): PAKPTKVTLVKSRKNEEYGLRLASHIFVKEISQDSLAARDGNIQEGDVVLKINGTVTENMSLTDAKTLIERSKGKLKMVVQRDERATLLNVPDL

Q: With LLQEEWETVM [PTH1R, Q03431] as the binder, how does the pKd read?
A: The pKd was “below the threshold”.

What follows are binders tested against T4, FRMPD1, Q5SYB0 (assay: holdup assay). Details: plain residues with an end cap or a label only (N-terminal biotin on a linker: ado-ado).
Set-up: key: below the threshold = too weak to quantify, mostly under pKd 3.1 to 4

Q: Which pKd does the source give for LLQEEWETVM [PTH1R, Q03431] here?
A: The pKd was “below the threshold”.

The binders below were run against T5, DFNB31_2, Q9P202 (assay: holdup assay). Details: plain residues with an end cap or a label only (N-terminal biotin on a linker: ado-ado).
Set-up: key: below the threshold = too weak to quantify, mostly under pKd 3.1 to 4

Q: Which pKd does the source give for LLQEEWETVM [PTH1R, Q03431] here?
A: The pKd was “below the threshold”.

Each binder was assayed against NHERF4_4, Q86UT5 (assay: holdup assay). Details: plain residues with an end cap or a label only (N-terminal biotin on a linker: ado-ado).
Set-up: key: below the threshold = too weak to quantify, mostly under pKd 3.1 to 4

Chain of NHERF4_4, Q86UT5 (Q86UT5 464-550): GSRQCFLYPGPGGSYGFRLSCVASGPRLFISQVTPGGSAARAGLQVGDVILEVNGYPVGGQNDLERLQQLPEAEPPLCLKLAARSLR

Q: Which pKd does the source give for LLQEEWETVM [PTH1R, Q03431] here?
A: Its pKd is “below the threshold”.

The binders below were run against DLG2_3, Q15700 (assay: holdup assay). Details: plain residues with an end cap or a label only (N-terminal biotin on a linker: ado-ado).
Set-up: key: below the threshold = too weak to quantify, mostly under pKd 3.1 to 4

Q: Which pKd does the source give for LLQEEWETVM [PTH1R, Q03431] here?
A: The pKd was “below the threshold”.

These binders were tested against GRIP2_6, Q9C0E4 (assay: holdup assay). Details: plain residues with an end cap or a label only (N-terminal biotin on a linker: ado-ado).
Set-up: key: below the threshold = too weak to quantify, mostly under pKd 3.1 to 4

Chain of GRIP2_6, Q9C0E4 (Q9C0E4 648-740): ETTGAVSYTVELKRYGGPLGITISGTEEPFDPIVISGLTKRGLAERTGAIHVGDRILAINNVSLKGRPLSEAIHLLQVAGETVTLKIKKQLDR

Q: LLQEEWETVM [PTH1R, Q03431] was tested. Which pKd did it give?
A: The pKd was “below the threshold”.

What follows are binders tested against T6, SNTB1, Q13884 (assay: holdup assay). Details: plain residues with an end cap or a label only (N-terminal biotin on a linker: ado-ado).
Set-up: key: below the threshold = too weak to quantify, mostly under pKd 3.1 to 4

Q: LLQEEWETVM [PTH1R, Q03431] was tested. Which pKd did it give?
A: The pKd was 4.24.

What follows are binders tested against SCRIB_3, Q14160 (assay: holdup assay). Details: plain residues with an end cap or a label only (N-terminal biotin on a linker: ado-ado).
Set-up: key: below the threshold = too weak to quantify, mostly under pKd 3.1 to 4

Chain of SCRIB_3, Q14160 (Q14160 999-1103): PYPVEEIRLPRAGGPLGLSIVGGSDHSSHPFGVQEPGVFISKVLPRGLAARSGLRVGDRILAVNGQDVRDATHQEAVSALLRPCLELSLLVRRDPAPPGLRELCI

Q: For LLQEEWETVM [PTH1R, Q03431], which pKd is on record?
A: The pKd was 4.64.

What follows are binders tested against T7, LRRC7, Q96NW7 (assay: holdup assay). Details: plain residues with an end cap or a label only (N-terminal biotin on a linker: ado-ado).
Set-up: key: below the threshold = too weak to quantify, mostly under pKd 3.1 to 4

Q: For LLQEEWETVM [PTH1R, Q03431], which pKd is on record?
A: Its pKd is “below the threshold”.

What follows are binders tested against Inadl_1, Q8NI35 (assay: holdup assay). Details: plain residues with an end cap or a label only (N-terminal biotin on a linker: ado-ado).
Set-up: key: below the threshold = too weak to quantify, mostly under pKd 3.1 to 4

Chain of Inadl_1, Q8NI35 (Q8NI35 113-229): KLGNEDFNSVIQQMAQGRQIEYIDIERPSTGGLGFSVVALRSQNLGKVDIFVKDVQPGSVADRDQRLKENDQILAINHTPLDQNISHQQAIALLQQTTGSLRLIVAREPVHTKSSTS

Q: How did the pKd turn out when LLQEEWETVM [PTH1R, Q03431] was run?
A: The pKd was “below the threshold”.

Each binder was assayed against T8, MPP7, Q5T2T1 (assay: holdup assay). Details: plain residues with an end cap or a label only (N-terminal biotin on a linker: ado-ado).
Set-up: key: below the threshold = too weak to quantify, mostly under pKd 3.1 to 4

Q: LLQEEWETVM [PTH1R, Q03431] was tested. Which pKd did it give?
A: The pKd was “below the threshold”.

What follows are binders tested against T9, RHPN1, Q8TCX5 (assay: holdup assay). Details: plain residues with an end cap or a label only (N-terminal biotin on a linker: ado-ado).
Set-up: key: below the threshold = too weak to quantify, mostly under pKd 3.1 to 4

Q: For LLQEEWETVM [PTH1R, Q03431], which pKd is on record?
A: The pKd was 4.41.

Each binder was assayed against IL16_1, Q14005 (assay: holdup assay). Details: plain residues with an end cap or a label only (N-terminal biotin on a linker: ado-ado).
Set-up: key: below the threshold = too weak to quantify, mostly under pKd 3.1 to 4

Chain of IL16_1, Q14005 (Q14005 210-306): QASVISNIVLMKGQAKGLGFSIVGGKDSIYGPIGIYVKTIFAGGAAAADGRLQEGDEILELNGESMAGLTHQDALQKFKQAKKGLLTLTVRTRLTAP

Q: For LLQEEWETVM [PTH1R, Q03431], which pKd is on record?
A: The pKd was “below the threshold”.

The binders below were run against T10, ARHGAP21, Q5T5U3 (assay: holdup assay). Details: plain residues with an end cap or a label only (N-terminal biotin on a linker: ado-ado).
Set-up: key: below the threshold = too weak to quantify, mostly under pKd 3.1 to 4

Q: Which pKd does the source give for LLQEEWETVM [PTH1R, Q03431] here?
A: The pKd was 4.11.

These binders were tested against PDLIM1, O00151 (assay: holdup assay). Details: plain residues with an end cap or a label only (N-terminal biotin on a linker: ado-ado).
Set-up: key: below the threshold = too weak to quantify, mostly under pKd 3.1 to 4

Chain of PDLIM1, O00151 (O00151 1-87): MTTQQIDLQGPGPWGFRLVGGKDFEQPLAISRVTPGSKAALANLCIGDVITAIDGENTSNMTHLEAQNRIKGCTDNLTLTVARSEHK

Q: Which pKd does the source give for LLQEEWETVM [PTH1R, Q03431] here?
A: The pKd was “below the threshold”.

The binders below were run against Inadl_3, Q8NI35 (assay: holdup assay). Details: plain residues with an end cap or a label only (N-terminal biotin on a linker: ado-ado).
Set-up: key: below the threshold = too weak to quantify, mostly under pKd 3.1 to 4

Chain of Inadl_3, Q8NI35 (Q8NI35 359-469): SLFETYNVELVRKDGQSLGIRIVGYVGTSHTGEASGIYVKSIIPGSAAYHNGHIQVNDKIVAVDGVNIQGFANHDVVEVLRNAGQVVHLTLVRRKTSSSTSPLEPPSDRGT

Q: With LLQEEWETVM [PTH1R, Q03431] as the binder, how does the pKd read?
A: The pKd was 4.7.

The binders below were run against GORASP2, Q9H8Y8 (assay: holdup assay). Details: plain residues with an end cap or a label only (N-terminal biotin on a linker: ado-ado).
Set-up: key: below the threshold = too weak to quantify, mostly under pKd 3.1 to 4

Q: With LLQEEWETVM [PTH1R, Q03431] as the binder, how does the pKd read?
A: Its pKd is “below the threshold”.

Each binder was assayed against Inadl_4, Q8NI35 (assay: holdup assay). Details: plain residues with an end cap or a label only (N-terminal biotin on a linker: ado-ado).
Set-up: key: below the threshold = too weak to quantify, mostly under pKd 3.1 to 4

Chain of Inadl_4, Q8NI35 (Q8NI35 547-651): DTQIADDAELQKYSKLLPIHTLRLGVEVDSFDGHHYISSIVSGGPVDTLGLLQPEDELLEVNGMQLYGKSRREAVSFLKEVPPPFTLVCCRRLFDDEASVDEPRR

Q: How did the pKd turn out when LLQEEWETVM [PTH1R, Q03431] was run?
A: The pKd was “below the threshold”.

These binders were tested against T11, MPDZ_5, O75970 (assay: holdup assay). Details: plain residues with an end cap or a label only (N-terminal biotin on a linker: ado-ado).
Set-up: key: below the threshold = too weak to quantify, mostly under pKd 3.1 to 4

Q: For LLQEEWETVM [PTH1R, Q03431], which pKd is on record?
A: The pKd was “below the threshold”.

What follows are binders tested against NHERF4_1, Q86UT5-2 (assay: holdup assay). Details: plain residues with an end cap or a label only (N-terminal biotin on a linker: ado-ado).
Set-up: key: below the threshold = too weak to quantify, mostly under pKd 3.1 to 4

Chain of NHERF4_1, Q86UT5-2 (Q86UT5 other isoform, or with tags, fused parts or gaps): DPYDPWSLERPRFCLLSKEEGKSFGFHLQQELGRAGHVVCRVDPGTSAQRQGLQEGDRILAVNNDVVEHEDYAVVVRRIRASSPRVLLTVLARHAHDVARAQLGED

Q: For LLQEEWETVM [PTH1R, Q03431], which pKd is on record?
A: Its pKd is 3.56.
